What follows are binders tested against thrombin (assay: cell-based or functional assay).

Binder	Relative Activity (ratio of variant IC50/WT IC50), chromogenic thrombin inhibition assay [ratio]
hirudin mutein M 77 (P48T) (other) VVYTDCTESGQNLCLCEGSVVCGQGNKCILGSDGEKNQCVTGEGTPKTESHNDGDFEEIPEEYLQ	1
hirudin mutein M 15 (I29A L30T) (other) VVYTDCTESGQNLCLCEGSVVCGQGNKCATGSDGEKNQCVTGEGTPKPESHNDGDFEEIPEEYLQ	1.21
hirudin mutein M 78 (D53E) (other) VVYTDCTESGQNLCLCEGSVVCGQGNKCILGSDGEKNQCVTGEGTPKPESHNEGDFEEIPEEYLQ	1
hirudin mutein M 13 (I29A L30Q) (other) VVYTDCTESGQNLCLCEGSVVCGQGNKCAQGSDGEKNQCVTGEGTPKPESHNDGDFEEIPEEYLQ	1.6
hirudin mutein M 17 (I29D L30Q) (other) VVYTDCTESGQNLCLCEGSVVCGQGNKCDQGSDGEKNQCVTGEGTPKPESHNDGDFEEIPEEYLQ	2
hirudin mutein M 19 (I29E L30K) (other) VVYTDCTESGQNLCLCEGSVVCGQGNKCEKGSDGEKNQCVTGEGTPKPESHNDGDFEEIPEEYLQ	1.1
hirudin mutein M 79 (D53N) (other) VVYTDCTESGQNLCLCEGSVVCGQGNKCILGSDGEKNQCVTGEGTPKPESHNNGDFEEIPEEYLQ	1
hirudin mutein M 20 (I29E L30Q) (other) VVYTDCTESGQNLCLCEGSVVCGQGNKCEQGSDGEKNQCVTGEGTPKPESHNDGDFEEIPEEYLQ	1.52
hirudin mutein M 14 (I29A L30R) (other) VVYTDCTESGQNLCLCEGSVVCGQGNKCARGSDGEKNQCVTGEGTPKPESHNDGDFEEIPEEYLQ	2.7
hirudin mutein M 81 (F56H) (other) VVYTDCTESGQNLCLCEGSVVCGQGNKCILGSDGEKNQCVTGEGTPKPESHNDGDHEEIPEEYLQ	0.8
hirudin mutein M 41 (L15T) (other) VVYTDCTESGQNLCTCEGSVVCGQGNKCILGSDGEKNQCVTGEGTPKPESHNDGDFEEIPEEYLQ	0.4
hirudin mutein M 1 (I29A L30A) (other) VVYTDCTESGQNLCLCEGSVVCGQGNKCAAGSDGEKNQCVTGEGTPKPESHNDGDFEEIPEEYLQ	1.4
hirudin mutein M 80 (D53R) (other) VVYTDCTESGQNLCLCEGSVVCGQGNKCILGSDGEKNQCVTGEGTPKPESHNRGDFEEIPEEYLQ	1
hirudin mutein M 12 (I29A L30K) (other) VVYTDCTESGQNLCLCEGSVVCGQGNKCAKGSDGEKNQCVTGEGTPKPESHNDGDFEEIPEEYLQ	1.45
hirudin mutein M 16 (I29D L30A) (other) VVYTDCTESGQNLCLCEGSVVCGQGNKCDAGSDGEKNQCVTGEGTPKPESHNDGDFEEIPEEYLQ	1.6

Source: patent US20060140929A1 (Merck KGaA, published 2006)
